Source: article PMC8383118

Experiments:
[1] = target: fluorescently labeled S. mutans XIP (dansyl-GLDWWSL) (Streptococcus mutans); assay: other fluorescence titration; 0.2 μM dansyl-XIP with increasing ComR, 1 h, room temperature, dark; 20 mM HEPES pH 7.5, 100 mM NaCl, 1 mM β-ME; dansyl emission intensity
[2] = target: ComR S. mutans, full length (Streptococcus mutans)
[3] = target: ComR:dansyl-XIP complex (Streptococcus mutans); assay: fluorescence polarisation; steady-state fluorescence anisotropy of 0.2 μM dansyl-XIP with 0.5 μM ComR and increasing Prx, 1 h, room temperature; 20 mM HEPES pH 7.5, 100 mM NaCl, 1 mM β-ME
[4] = target: ComR S. mutans DNA-binding domain (DBD) construct (Streptococcus mutans); assay: ITC; 300 μM Prx (or PrxD32A) injected into 20 μM ComR S. mutans or DBD, 25 °C, gel filtration buffer (20 mM Tris-HCl pH 7.5, 100 mM NaCl, 1 mM β-ME); one site model
[5] = target: ComR S. mutans, full length (Streptococcus mutans); assay: as above

Molecule | Kd [1] [nM] | EMSA: Prx needed for complete inhibition (no DNA band shift) of 4 μM ComR with 8 μM XIP and FAM-labeled comS promoter probe; Prx added with or before XIP (apo-ComR) [2] [µM] | EMSA: Prx needed for complete inhibition (no DNA band shift) when added after the ComR:XIP:DNA complex was allowed to form (activated ComR) [2] [µM] | Kd [3] [nM] | Kd [4] [nM] | dH [4] [kcal/mol] | stoichiometry N [4] | Kd [5] [nM] | dH [5] [kcal/mol] | stoichiometry N [5]
ComR S. mutans, full length (receptor) | 320 |  |  |  |  |  |  |  |  | 
paratox (Prx) from S. pyogenes MGAS315 (natural protein) MLTYDEFKQAIDRGYITADTVMIVRKNGQIFDYVLPNEKIKNGEIVTDEKVEEVLVELSR |  | 6 | 2 | 700 | 50 | -20.8 | 1 | 390 | -11.8 | 1
